Experimental data as given in the Immune Epitope Database (IEDB).

Columns and labels:
Experiment in all cases: IEDB peptide-MHC binding, purified MHC/competitive/radioactivity; filed as Kd, often an IC50 or EC50 that approximates it; ≥ and ≤ were set here for values at or beyond the usual limits of such assays
HLA-A*31:01 = biological target: HLA-A*31:01
HLA-A*03:01 = biological target: HLA-A*03:01
HLA-A*11:01 = biological target: HLA-A*11:01
HLA-A*33:01 = biological target: HLA-A*33:01
HLA-A*68:01 = biological target: HLA-A*68:01
[1] = source organism: Mammarenavirus machupoense
[2] = source organism: Dengue virus 4 Philippines/H241/1956
[3] = source organism: Mammarenavirus guanaritoense
[4] = source organism: SARS coronavirus Tor2
[5] = source organism: Vaccinia virus WR
[6] = source organism: Lassa virus Josiah
[7] = source organism: Dengue virus 3 Martinique/1243/1999

Sequence | Kd (HLA-A*31:01; [5]) [nM] | Kd (HLA-A*03:01; [5]) [nM] | Kd (HLA-A*11:01; [5]) [nM] | Kd (HLA-A*33:01; [5]) [nM] | Kd (HLA-A*68:01; [5]) [nM] | other results
SSVSVLMKEH | – | – | – | – | – | Kd (HLA-A*31:01; [1]): 11700 nM; Kd (HLA-A*03:01; [1]): 17700 nM; Kd (HLA-A*11:01; [1]): ≥ 31000 nM; Kd (HLA-A*33:01; [1]): ≥ 70000 nM; Kd (HLA-A*68:01; [1]): 8860 nM
ENMEVEIWTR | – | – | – | – | – | Kd (HLA-A*33:01; [2]): 106 nM
PCPLPHRLDR | – | – | – | – | – | Kd (HLA-A*31:01; [3]): 2940 nM; Kd (HLA-A*03:01; [3]): ≥ 70000 nM; Kd (HLA-A*11:01; [3]): ≥ 69700 nM; Kd (HLA-A*33:01; [3]): ≥ 21800 nM; Kd (HLA-A*68:01; [3]): ≥ 31100 nM
MSYTMCSGK | – | – | – | – | – | Kd (HLA-A*03:01; [2]): 3.04 nM; Kd (HLA-A*68:01; [2]): 5.87 nM
SFYVYANGGR | – | – | – | – | – | Kd (HLA-A*31:01; [4]): 89.2 nM; Kd (HLA-A*03:01; [4]): 1650 nM; Kd (HLA-A*11:01; [4]): 1170 nM; Kd (HLA-A*33:01; [4]): 182 nM; Kd (HLA-A*68:01; [4]): 789 nM
RSSPPIPMSR | 1.12 | 8.73 | 1.49 | 1600 | 245 | –
TTGRTSLPK | – | – | – | – | – | Kd (HLA-A*31:01; [6]): 18000 nM; Kd (HLA-A*03:01; [6]): 5240 nM; Kd (HLA-A*11:01; [6]): 1760 nM; Kd (HLA-A*33:01; [6]): 14500 nM; Kd (HLA-A*68:01; [6]): 13300 nM
VIDKAKVMGR | 130 | 805 | 488 | 2650 | 334 | –
ISQFSYKELY | 9580 | 5720 | 1250 | ≥ 46800 | 7760 | –
FFLRKLTSR | – | – | – | – | – | Kd (HLA-A*31:01; [7]): 47.7 nM; Kd (HLA-A*33:01; [7]): 46.6 nM
TSSTCMMCYK | – | – | – | – | – | Kd (HLA-A*31:01; [4]): 85.1 nM; Kd (HLA-A*03:01; [4]): 22.9 nM; Kd (HLA-A*11:01; [4]): 1.17 nM; Kd (HLA-A*33:01; [4]): 441 nM; Kd (HLA-A*68:01; [4]): 4.93 nM
TVHKLTQDEK | ≥ 70000 | 12300 | 80.5 | ≥ 70000 | 220 | –
YALINLVQYR | 570 | 11700 | 6860 | 1270 | 21.8 | –
KTYIDVNEEY | 1880 | 1800 | 777 | ≥ 70000 | 10500 | –
ISELSRLRY | 5370 | 6570 | 10800 | ≥ 77700 | ≥ 22700 | –
GVCGIRSTTR | – | – | – | – | – | Kd (HLA-A*31:01; [7]): 27.2 nM
LSCIRNASK | 300 | 484 | 500 | 784 | 276 | –
NMLNIMNRRK | – | – | – | – | – | Kd (HLA-A*03:01; source organism: Dengue virus 1 Singapore/S275/1990): 181 nM
GLCAHILLY | 18000 | 14 | 37.5 | 8360 | 3200 | –
LLTDTIESAK | 10100 | 190 | 84.7 | 2340 | 667 | –
